Test results published in a protein production outcome set (Wang et al. 2014).

experiment: label from the status in PepcDB records
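Note: failed if final PepcDB status was selected cloned or expressed and not failed if soluble or beyond.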

Row | Sequence | protein production
1 | MRILLTTLNAKYIHVNLALRYLRACCRDLPHTFILDEFTINDHPEHIAAAIYRHRPDLVAFSCYIWNIEPTLAVAAILKKVRPELTILCGGPEVSFDTAAFLAQNPQIDLVITGEGEIPFRALLEQLAGQQRPPAGNREEPLTASMYRPAGGRPAPGPVPDPAAIPGLAWRRGAETIVNPPAPPLRDLDTIPFPYQEDLDAAGNELSQRTVYYETSRGCPFACGFCLSSTTEGLRYFSLERVRDDLERLLKAGVREIKFVDRTFNAHKKRALAIWEFLLSRRPRARCYFEIAGDRLDEEMLAHLNRVPPDLFQFEIGVQTIDAGVNARCNRRQDWARLAANTRRLREMGSIRLHLDLIAGLPGETYAGVGESFDAVVALKPHEIQLGFLKLLKGTTLRARADEFGYLFLDRPPYQVLASSAITYEEMLRLHAIEGLLKYYGNSHLADHAFAYLAATAFDGSYFAIYEALAAWWEARGLLRRGHSQRDLFNHLASFAIHLARGIATRVTVPPLPGYHDSILEINSHGDTPASGAEHSGCARNLTPAQLDRFYQLLKFDCLCRDRSRNFPGWMPPSPLTEEERSNWMARITTPRSMEKYMPGLVKESPANLRRHGFIELFPCHPERPEEDNPTIVFFYYGPPGSETRVYYLQAPPLVV | failed
2 | MRILTLGLDGSGEFAFQSHAHTDHFANGRLIFATRPTIFLSHLRNSRYYIPVDFGKKFYIGDFKAKLYPSGHILGSSGIKIWLDEGTLYYTGDVKVKKLRTVERAKLPKADFLIIESTFGLPRFTFPDPRESEKVIIGIVEDLIDRGKVPTFMANPYGKAQEIIKILNVHGYSVSVDREIAKVSKFYMKFGVRLKFEKEGEVKVSSSKGISVSGFGRIKLSNHADFWELLEIVERVNPEKVFTVYGHAEAFAKILNGLGYEAKSIRRNQKLEVWLEHHHHHH | failed
3 | MRINILSEDTSNKIAAGEVVERPFSVVKELVENSIDAGAKTINIEIENGGRTLIKVLDDGYGIDKDDIEKAFMPHATSKISKLQDIYSINTLGFRGEALPSIASVSKTTLKSRTKENEFGREISISGGSVDYIKDCGTNIGTHIEVRDLFYNVPAREKFLKSTAKEASSISDIVNRLALAHSEISFRLINNGKRVITTYATDNLIDTIRAIYGKKICDNVISFERHTDLVSVHGYVGNAEISRGSRNNQSIFINKRYIKNKLITAAVENAVKSFMMINKFPFFIIFLDIFPEFVDVNVHPTKSEVKFQNERDIFKIIFDTVHEGIRNSLKESFKVEALKEEEDKLFDIKEDVITKNEIKHDDKIDGYIKKDSFPVPVQIPIDLKRPIENYDNSTKENKDRSFDDFREKDIIKETSQEKETYDIITNKKAKFPELRVIGQFNNTYILAESFEELYIIDQHAAHEKILFEKYREDIKNKGVSSQILITPSVVELLPEDFIYYDENKEVFKNAGFVIEYFGDNTVAIKEVPLFLGKPLVKDLFLEIIDNLKNMGSGETSEVKYRSIATAACKSAVKAYHELTHDEMKTLIQDLRFAEDPFNCPHGRPTIVRLTVTDFEKKFKRIQ | failed
4 | MRIQTTFSRKLVLMSLLAVFCGCADVHSSVKGDAMVEQAKGGVLREIKVAETGEGARVVLSADRPLAYTFYKTADPPKAVIDLARTEPGAIASPMDVNSDTIRRIETVRYGEGATAMTRVEVYFTRDTEANATIDASDKGMLVLAVARPVAPAASVAVEAAPAAGQAGESSTGAPVAVAAAPAVAPAPVAVEPQAPIAPVVAPQTGPPVIKAIEAQNGYLVIETSGEIKDFKFFRLAKPDRLVVDISDARLGINSKAIPLNALGVGMARIGAYPDKVRIVLDAAGGTLSPLNVTKGAAGLIVAPADKVVDVPRAAAPPQPSASASQARQPEAVKSAEPAKGLTPAVDAIEFKVLDGTSRITVAVTGACANDKPVKSADGFSVTLRNCILPKKLQRHLDTGAFASVVQKVTPYQVKTKGRSDVKIQVQLRQPASYDVRRDGDLLQVSVRNPEGFEPPVADVPASPTLQDGMDQAAVRQKEPSRETDPLAGVAQSGGTKKAYTGRRVTLEFSDADIRKIFQLIAEVSNLNFLVGDDVTGTISLKLVNVPWDQALDVILENKGLGMQRDGNIVQIRPKSKIQTLADEEQALKRAKERGMELKTEVFDINFAAVGDIVSQFNAVKSERGTISQDARTNRVIVKDIEPALAEMRILLKNLDLPEKQVLIEARIVEATSTFTRDLGVQWGIHSNDSGADIIRSVDAGFGGIVTPPPASGFPAATSSGGAVGISFAKMGSLQVDLRLSAAAVAGLVKIVSTPKVVTLNNKAAKISQGQSIPYQTTSAEGTKTEFVEAALTLEVTPHITADGSVSMKIKASNNSAGTGSPPPINKKEATTELLVKNGETTVIGGIYVDSDTDEDRGVPFLMDIPVLGWLFKSNTKNKTKTELLIFITPKIVS | failed
5 | MRIRLLGGLEVMSREHRQVRFTTRKTSLLFAALVLGGRRGYRRELLSETFWPGRSNEQARNSLRQALVDIRRSFPAGGDAPVYIDGDQETVALITGPDETDISIFDRKLEAGRTADLAFAADLYRGEVLAGEAIPDELDEWFGPYRSTYQRKALQLVERLSQALSEPGTAEESACEGLAERLLAMDPTVEAAHRALMQIHALRGHENAALRQFEACRALLRKHLQAEPEAETSSLAASLQSRQGSEHRRTTPGPDPVPQPQAISAPAKHHDRPSVAVLPFQNLSGDAEQEYFADGIVEDITIALAQFRHLYVIARNSSFTYKGQAVDIKQVGRELDVRYVVEGSVRRTGDRLRIAGQLIDTSTGTHLWADRFDGTLANVFDLQDQVASSIVGAITPKVEEAEIERAKRKPTESLDAYDYYLRGLAAFDRTVTNRSVIDEALRLFREAIERDPEFAVAHARAARCYATRKSNGWMLNPADETAEATRLARRAVELGWDDAVALTYGGYVIGYVGGDLDDSAACIDRAVSLNPNLAAALGVSSWVKVCLGEPDKAIEHATLAMRLSPLDPRLFAWQFNIGLAHFCAGHYDDAAVWAGKSLRHQLNYPSAMRVMAASQAMAGRLAQARETIARLCLMDPALRLSNLADVLPPFRRPDDRNRYIEALRMAGLPE | failed
6 | MRISFVGSGKVATHLAKAFAQQHQIIQIMSRNLPHAEKLAHQVGACAIDNYSQIEQEIDLLVIAVSDQSISSVIQAVHVFVPEQLIVHTSGSTDVKILSDIHSNAGVFYPLQTFSFERDIHWSDTPLLIEAEQANSLSILNALANSLTKRVYHYSSTQRLSLHLAAVFACNFSNYCYDMAKQTVDQAQVDFSLLYPLILETAKKATQHDPVQVQTGPAVRHDHNIVELHQNLLLKANRPDLKDIYQRLSQAIIARHHTQP | failed
7 | MRITTLEELLEALDELFDDGSDLTRRGAQDPWERVFSQPGHPLASDLPDACLVDWTRQGLLPSGDGLTALDLGCGLGRNARWLARQGYAVTGLDLSPYAVGQARERTPGPDIRYLEGDVLRDPIPGGPFDVVYDSGCFHHLPPHRRLSYLHTLGQVLRPGGWFGLCTFAWGRMGSAKSDLELLRQGQLEGGVGYTLDDLREMFGGLDFVTGSLLSELEPASEPVFQMDFLQAALFRRPE | failed
8 | MRKDEYRATLLEPNVWHIADYRGDSMYLVVGEEKALLVDTGMGEGDLKGFVRSITEKPVEVVLTHAHWDHIMQANQFEKVYLNHRDFQIIELFKINVNYENFLNVKEGDRFDLGGRTLEVIEVPGHTPGSIVLLDRENRLLFSGDSVGAGHTWMHLPGCLPLREYLKSLKKLKETDSFEKIYHGHLTGTQLKPFGPDYLDDLIKAVEGVIDGSLRGEP | failed
9 | MRKFKISVLLKLGFYCLFLSIGLEMQARKFVHPGILHTTKSIERMRAQIADKEYPAYGSFELLKSHHCSQADYQPFGPFEIISRDGEFRHTKSKMEQDFSAVYQNALMWVLTGEKTHAEKSLELLLGYAGTLKRIPETNDAPLLVGLEGLKIIYATEILRHTYKKMTVVQFNEISRMIREVFLPVMENFYHRKPYTNGNWGPIVTKAYMAAAILWDNEEMYNKAVDFYLHANDNGTIAHYISGDTGQIQESGRDQGHSMLGIGALATVCEIAWQQGDDLYSALDNRLMKGFEYVAKYNLGYNVPFAVWKDVTGKYSNWTEISNKGRGRYMPIFEMTYNHFVIRKGMQMPYTEQVLRQIRPEGYDRDQPAFGSLLFNEAGTKKNYVDLVNPFVDSHRSRWFFFSSACRPFGMVSLSPDTDTEHSWGSGYLYDSKQIRCFSHVHNWQMSGVAVMPTVGEFKGHLGMNAYQSAFTHDGEIAKPGYHKVKLTDYDITAELTSTMRVGFHCYTFPKSDASYILFDTGAFLAHGPTAYSEVWKVSDKEIAGWEMMERTGRRPKDTPVYFYAQLSKPMDKVVSWREGRIESNSNPERISGKNAGMAVRFKTEKDEKVMLKVAISYVSVEQARKNMLTELSGWDFEQVKQSSFSEWNDWLGRIEVEGGSREQQIKLYTDLWHALLGRHVVSDADGHYMDMTSDFPRIRQIPLGEDGKPLYNHHNFDAWWGSHWSLNILWSMAYPEVMDNFCNTMIDMYQNGGLIPRGPSGGNYTYVMIGDPAVSFFASAYNKGIRNYDAELAYEGLRKNAFVGGIRDHAGYEHSKTAYSGGMKYYEEWGYVPDGRKDVEGMHTTGASMTLEYAYQDWCLAQMAKTMGKLQDYEFFMKRSKNYRNLWNPESGYMQPRGEDGNWLPYFDPLELTEKGGFCESNSAIYSHYVPHDMAGLIELYGGADQYVKRLNANFEKSESYGFFRSNKTKEGNWTDYGNQPGTGMAHLFSYAGAPWLTQKWVRKVKAAYCDVTPYGGYRDDEDQGQMGALGVLMAIGLFEVDGGCAEKPFYEITSPLFDKVTIHLDNRYYSGKTFQIITKGNSTDNMYIQNASLNGKKWNKCWFYHEDFIKGGTLELKLGAKPNKKWGVEELPPSFISSK | failed
10 | MRKKKRLISLLLAVFIAVACLPAGIARADKASSIELKFDRNKGEVGDILIGTVRINNIKNFAGFQVNIVYDPKVLMAVDPETGKEFTSSTFPPGRTVLKNNAYGPIQIADNDPEKGILNFALAYSYIAGYKETGVAEESGIIAKIGFKILQKKSTAVKFQDTLSMPGAISGTQLFDWDGEVITGYEVIQPDVLSLGDEPYETPGTDIPISDNPAATPSSTPSVTPSPEVKPTQTPSPAENSAKVELEPVLDNATGEAKAAIDEEKLNKALDEAKKSEDDKLVELNIKKVENADAYIQQLPAKFLIKSDAEYKLRIATEQGIIEVPANMLNTADISKLVKNDSVVEFVIRKVKVDELGAELKEKIGNRPVIDISVVVDGKKVEWSNYKAKVKISIPYKPDAKELENHEHIVVLHIDDAGKAVSVPSGKYEPSLGVVTFETNHLSKYAVSYVYKTFADIGSYAWAKKQIEVLASKGVINGTSDTTFTPQADITRADFMILLVKALGLTAEVTSNFDDVSEKDYYYEYVGIAKELGITTGVGNNKFNPKAKITRQDMMVLTTNALRIAGKISSTGTRADVERFSDKDQIASYAVEGVATLVKEGIVVGSGDIINPRGNASRAELAAIIYKIYYK | not failed
11 | MRKLWPLALLLAACGAQDVGAGLDPLRLTATSLPPAYLGEPYSASLAAEGGVRPYSFTLDGKLPEGLSFQGGRLFGVPKEKGSFPLLLTVEDAAKNSRAQRLTLTVSDPPPPRLALVLPPAQVEGPFLLLARVEGREAVGFQMEVRLADLEPDLAGLKALSPAHLLDYDPATRLLRLDMAFAKPVKDREAFRLLLTPQKPLVPRLSPKVVFYDKEGKPLGQPLPRGKPFAELLRLAQAWGREGKALKEDLDGDGKVGEADLRLLAQDYFPKPETPSPEAPGGGEGQASGEEQARLEHHHHHH | failed
12 | MRKNHYPLRGYISTNRSKHNLKAHLILVCKYRKKLLQGDLNNFIKSVIDEIATQSNFIIIAMESDIDHLHLMVQYIPRMSISSIISRIKQITTYRVWRDKRFIPLLQKHFWKEKTFWTDGFFVCSIGEANPETIKAYIENQG | failed
13 | MRKPKITVIGGGTGSPVILKSLREKDVEIAAIVTVADDGGSSGELRKNMQQLTPPGDLRNVLVAMSDMPKFYEKVFQYRFSEDAGAFAGHPLGNLIIAGLSEMQGSTYNAMQLLSKFFHTTGKIYPSSDHPLTLHAVFQDGTEVAGESHIVDHRGIIDNVYVTNALNDDTPLASRRVVQTILESDMIVLGPGSLFTSILPNIVIKEIGRALLETKAEIAYVCNIMTQRGETEHFTDSDHVEVLHRHLGRPFIDTVLVNIEKVPQEYMNSNRFDEYLVQVEHDFVGLCKQVSRVISSNFLRLENGGAFHDGDLIVDELMRIIQVKK | not failed
